Substitutions are numbered along the chain they refer to. Where “and” joins values, the source holds several entries; their conditions need not be identical. Equal values may be shown once.
T1: recombinant human IL-17A (human, UniProt Q16552 24-155)
T1 sequence: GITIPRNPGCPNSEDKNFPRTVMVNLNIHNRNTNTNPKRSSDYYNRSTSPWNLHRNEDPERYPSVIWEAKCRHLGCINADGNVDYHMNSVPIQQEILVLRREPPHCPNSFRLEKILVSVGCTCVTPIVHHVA

T2: recombinant human IL-17A/F (heterodimer) (human, UniProt Q16552 24-155; Q96PD4 31-163)
T2 sequence 1: T1 sequence
T2 sequence 2: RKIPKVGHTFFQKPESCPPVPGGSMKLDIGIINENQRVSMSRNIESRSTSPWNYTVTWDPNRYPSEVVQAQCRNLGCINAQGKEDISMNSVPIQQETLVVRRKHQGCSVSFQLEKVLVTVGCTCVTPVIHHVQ

B1: OREG-203 (antibody, V domains shown)
VH: QAQLQQSGAELVKPGASVKMSCKAFGYTFTTFPIEWMKQNHGKSLEWIGNFHPYNDYTKYNEKFKGKAKLTVEKSSRTVYLELSRLTSDDSAVYYCARGAYYGDYVSHTMDFWGQGTSVTVSS
VL: NIVLTQSPASLAVSLGQRATISCRASESVDSYGNSFMHWYQQKPGQPPKLLIYLASNLESGVPARFSGSGSRTDFTLTIDPVEADDAAIYYCQQNNEDPLTFGAGTKLELK
notes: also called mAb OREG-203; Ab OREG-203
B2: Fab fragment of OREG-203 (Fab, V domains shown)
VH: B1 VH
VL: B1 VL
B3: OREG-207 (antibody, V domains shown)
VH: B1 VH with R77S
VL: B1 VL
notes: also called mAb OREG-207; Ab OREG-207
B4: OREG-210 (antibody, V domains shown)
VH: QVQLKESGPDLVAPSQSLSITCTVSGFSLTSYGIHWVRQPPGKGLEWLVVIWSDGTTTYNSALKSRLSISKDNSKSQVFLKMNSLQTDDTAMYYCASSYDYLYHYTMDYWGQGTSVTVSS
VL: DVVMTQTPLSLPVSLGDQASISCRSSQSLVHSNGNTYFHWYLQKPGQSPKLLIYKVSNRFSGVPDRFSGSGSGTDFTLKISRVEAEDLGVYFCSQSTHVPLTFGAGTNLELK
notes: also called mAb OREG-210; Ab OREG-210
B5: F(ab')2 fragment of OREG-210 (other)
VH: B4 VH
VL: B4 VL
B6: Fab fragment of OREG-210 (Fab, V domains shown)
VH: B4 VH
VL: B4 VL

Legend:
[1] = molecular target: T1, recombinant human IL-17A; test: cell-based or functional assay
[2] = molecular target: T2, recombinant human IL-17A/F (heterodimer); test: cell-based or functional assay
[3] = molecular target: T1, recombinant human IL-17A; test: competitive ELISA in solution (method of Friguet et al.)
Procedure: (§1) For this determination a competitive ELISA with the various isoforms was performed.
(§2) Appropriate concentrations of the respective antigens and monoclonal antibodies were mixed in assay buffer and incubated overnight with continuous shaking at room temperature. The same monoclonal antibodies in the same concentration, but without antigen were used as positive reference (100% value). Pre-incubated antibodies were added to the plates. The plates were incubated with continuous shaking and washed 4× with 250 μL/well TBS-TRP.

[4] = molecular target: T2, recombinant human IL-17A/F (heterodimer); test: as above
Procedure: as §1, §2

Row | Binder | IC50, neutralization of IL-6 production in normal human dermal fibroblasts [1] | IC50, neutralization of IL-6 production in normal human dermal fibroblasts [2] | Ka [3] [M⁻¹] | Kd [3] [nM] | Ka [4] [M⁻¹] | Kd [4] [nM]
1 | B1 | 115 ng/ml and 0.76 nM | 30.2 ng/ml and 0.2 nM | 1.4e+09 | 0.714 | 1e+09 | 1
2 | B2 | 75.9 ng/ml and 1.52 nM | 15.3 ng/ml and 0.306 nM | – | – | – | –
3 | B3 | 96.5 ng/ml and 0.64 nM | 40.1 ng/ml and 0.26 nM | 1.54e+09 | 0.649 | 2.67e+09 | 0.375
4 | B4 | 110 ng/ml and 0.74 nM | 167 ng/ml and 1.1 nM | 6.4e+08 | 1.56 | 3.4e+08 | 2.94
5 | B5 | 1050 ng/ml and 10.5 nM | 1160 ng/ml and 11.6 nM | – | – | – | –
6 | B6 | 1120 ng/ml and 22.4 nM | 605 ng/ml and 12.1 nM | – | – | – | –

Source: US20150104457A1 (OREGA BIOTECH, published 2015)
